Laboratory results published in patent publication US20090118185A1 (UNIVERSITY OF ROCHESTER, published 2009).
Where a chain is given by its changes, count along the chain named.

Columns and labels:
[1] = target: T1, 562(P4-P2)336 factor VIIIa mutant
T1 chain 1: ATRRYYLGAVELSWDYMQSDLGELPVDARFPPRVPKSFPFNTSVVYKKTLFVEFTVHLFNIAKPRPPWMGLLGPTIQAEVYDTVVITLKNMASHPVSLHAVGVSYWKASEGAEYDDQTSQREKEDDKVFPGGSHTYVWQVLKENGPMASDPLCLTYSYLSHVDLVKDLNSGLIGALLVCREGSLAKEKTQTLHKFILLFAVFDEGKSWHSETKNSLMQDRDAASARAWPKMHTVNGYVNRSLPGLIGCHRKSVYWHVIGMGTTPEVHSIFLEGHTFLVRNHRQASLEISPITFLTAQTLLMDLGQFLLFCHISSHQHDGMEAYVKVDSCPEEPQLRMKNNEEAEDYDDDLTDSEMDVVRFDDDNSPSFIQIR
T1 chain 2: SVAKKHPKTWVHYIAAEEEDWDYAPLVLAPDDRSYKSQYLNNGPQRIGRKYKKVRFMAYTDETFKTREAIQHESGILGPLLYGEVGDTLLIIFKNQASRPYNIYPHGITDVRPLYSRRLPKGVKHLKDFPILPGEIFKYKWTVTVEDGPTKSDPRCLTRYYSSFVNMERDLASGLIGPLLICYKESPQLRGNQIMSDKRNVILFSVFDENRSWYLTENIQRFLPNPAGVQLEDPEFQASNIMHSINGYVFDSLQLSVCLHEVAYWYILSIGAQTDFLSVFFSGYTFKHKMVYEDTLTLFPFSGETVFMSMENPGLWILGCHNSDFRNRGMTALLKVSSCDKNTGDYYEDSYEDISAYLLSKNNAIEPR
T1 chain 3: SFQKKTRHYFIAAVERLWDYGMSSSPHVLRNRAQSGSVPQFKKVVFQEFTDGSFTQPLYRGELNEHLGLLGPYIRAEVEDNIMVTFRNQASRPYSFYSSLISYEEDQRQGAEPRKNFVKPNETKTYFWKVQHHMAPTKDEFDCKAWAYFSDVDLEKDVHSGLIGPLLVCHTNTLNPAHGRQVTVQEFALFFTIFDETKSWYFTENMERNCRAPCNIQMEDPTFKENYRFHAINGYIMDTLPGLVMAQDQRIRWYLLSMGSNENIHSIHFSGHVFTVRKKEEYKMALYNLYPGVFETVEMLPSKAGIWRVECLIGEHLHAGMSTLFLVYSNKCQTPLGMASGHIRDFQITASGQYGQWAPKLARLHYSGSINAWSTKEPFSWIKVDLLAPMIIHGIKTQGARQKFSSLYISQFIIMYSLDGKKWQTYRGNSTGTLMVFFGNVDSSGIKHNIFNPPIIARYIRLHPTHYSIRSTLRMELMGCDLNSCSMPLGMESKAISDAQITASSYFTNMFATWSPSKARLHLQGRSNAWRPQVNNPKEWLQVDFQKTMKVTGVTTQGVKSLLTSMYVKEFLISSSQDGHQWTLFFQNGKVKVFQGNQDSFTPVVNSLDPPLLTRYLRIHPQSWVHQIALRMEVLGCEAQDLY

[2] = target: T2, WT factor VIII (B-domainless recombinant human factor VIII procofactor)
T2 chain 1: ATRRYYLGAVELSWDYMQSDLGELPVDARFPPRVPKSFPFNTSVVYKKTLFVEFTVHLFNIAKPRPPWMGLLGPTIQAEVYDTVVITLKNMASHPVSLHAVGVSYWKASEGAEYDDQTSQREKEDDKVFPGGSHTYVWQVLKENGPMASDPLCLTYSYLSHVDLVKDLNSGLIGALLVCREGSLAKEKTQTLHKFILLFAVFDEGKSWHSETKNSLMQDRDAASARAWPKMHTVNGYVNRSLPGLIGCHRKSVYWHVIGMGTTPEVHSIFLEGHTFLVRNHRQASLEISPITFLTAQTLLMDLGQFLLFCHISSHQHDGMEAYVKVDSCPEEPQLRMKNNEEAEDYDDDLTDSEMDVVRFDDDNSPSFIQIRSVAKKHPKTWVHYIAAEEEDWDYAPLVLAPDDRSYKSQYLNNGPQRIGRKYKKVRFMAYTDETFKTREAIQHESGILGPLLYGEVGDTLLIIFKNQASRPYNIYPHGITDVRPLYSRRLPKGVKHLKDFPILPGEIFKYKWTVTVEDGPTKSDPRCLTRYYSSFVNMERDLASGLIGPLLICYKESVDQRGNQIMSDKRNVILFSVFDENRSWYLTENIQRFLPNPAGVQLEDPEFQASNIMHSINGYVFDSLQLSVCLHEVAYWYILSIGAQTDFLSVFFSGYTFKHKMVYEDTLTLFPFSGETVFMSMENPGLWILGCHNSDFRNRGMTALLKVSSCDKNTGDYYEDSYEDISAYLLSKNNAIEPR
T2 chain 2: T1 chain 3

[3] = target: T3, 336(P4-P3′)562 factor VIIIa mutant
T3 chain 1: T1 chain 1 with P333V, Q334D, L335Q, M337G, K338N, N339Q
T3 chain 2: T1 chain 2 with P187V, Q188D, L189Q
T3 chain 3: T1 chain 3

B1: human activated protein C (protein)
chain 1: ANSFLEELRHSSLERECIEEICDFEEAKEIFQNVDDTLAFWSKHVDGDQCLVLPLEHPCASLCCGHGTCIDGIGSFSCDCRSGWEGRFCQREVSFLNCSLDNGGCTHYCLEEVGWRRCSCAPGYKLGDDLLQCHPAVKFPCGRPWKRMEKKRSHL
chain 2: LIDGKMTRRGDSPWQVVLLDSKKKLACGAVLIHPSWVLTAAHCMDESKKLLVRLGEYDLRRWEKWELDLDIKEVFVHPNYSKSTTDNDIALLHLAQPATLSQTIVPICLPDSGLAERELNQAGQETLVTGWGYHSSREKEAKRNRTFVLNFIKIPVVPHNECSEVMSNMVSENMLCAGILGDRQDACEGDSGGPMVASFHGTWFLVGLVSWGEGCGLLHNYGVYTKVSRYLDWIHGHIRDKEAPQKSWAP
A1 Cleavage (nM A1/min/nM APC) (nM A1/min/nM APC) [1]: 7.4 | A2 Cleavage (nM A2/min/nM APC) (nM A2/min/nM APC) [1]: 0.7 | A2 Cleavage (nM A2/min/nM APC) (nM A2/min/nM APC) [2]: 0.1 | A1 Cleavage (nM A1/min/nM APC) (nM A1/min/nM APC) [3]: 0.1 | A2 Cleavage (nM A2/min/nM APC) (nM A2/min/nM APC) [3]: 0.05 | fold reduction of A1 subunit cleavage rate relative to WT [3]: reduced by ˜100-fold relative to WT
